Test results reported in patent US20210079056A1.

Columns and labels:
[1] = biological target: rat ANP receptor (NPR-A) (rat) (UniProt P18910); assay: cell-based or functional assay
[2] = biological target: rat CNP receptor (NPR-B) (rat) (UniProt P16067); assay: cell-based or functional assay
Sequence of rat CNP receptor (NPR-B) (rat) (P16067 17-1047): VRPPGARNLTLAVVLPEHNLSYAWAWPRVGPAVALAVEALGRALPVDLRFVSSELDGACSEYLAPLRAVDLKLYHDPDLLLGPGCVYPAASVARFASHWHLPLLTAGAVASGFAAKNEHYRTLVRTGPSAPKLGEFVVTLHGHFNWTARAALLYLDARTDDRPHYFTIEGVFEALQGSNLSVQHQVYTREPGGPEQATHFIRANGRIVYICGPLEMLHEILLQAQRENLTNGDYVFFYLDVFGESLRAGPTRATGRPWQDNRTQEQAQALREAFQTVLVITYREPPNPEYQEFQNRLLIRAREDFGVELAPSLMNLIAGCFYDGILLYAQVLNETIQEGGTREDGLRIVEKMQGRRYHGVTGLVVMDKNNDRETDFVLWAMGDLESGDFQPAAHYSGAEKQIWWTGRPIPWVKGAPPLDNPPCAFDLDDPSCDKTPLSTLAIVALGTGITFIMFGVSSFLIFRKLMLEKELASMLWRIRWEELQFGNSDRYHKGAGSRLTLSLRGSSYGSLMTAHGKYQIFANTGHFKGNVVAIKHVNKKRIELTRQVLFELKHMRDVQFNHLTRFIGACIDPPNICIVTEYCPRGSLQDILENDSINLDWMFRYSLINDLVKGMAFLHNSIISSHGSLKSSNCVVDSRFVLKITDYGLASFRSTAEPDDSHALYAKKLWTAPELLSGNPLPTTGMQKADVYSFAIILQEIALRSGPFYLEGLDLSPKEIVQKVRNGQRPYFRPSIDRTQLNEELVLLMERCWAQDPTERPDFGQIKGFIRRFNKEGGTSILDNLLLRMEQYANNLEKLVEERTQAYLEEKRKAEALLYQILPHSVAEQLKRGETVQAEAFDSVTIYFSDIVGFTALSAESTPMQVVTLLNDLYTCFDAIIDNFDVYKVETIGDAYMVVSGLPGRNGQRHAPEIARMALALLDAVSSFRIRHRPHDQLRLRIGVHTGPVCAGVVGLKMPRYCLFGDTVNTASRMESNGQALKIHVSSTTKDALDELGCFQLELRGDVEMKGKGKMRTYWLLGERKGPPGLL

Sequence of rat ANP receptor (NPR-A) (rat) (P18910 29-1057): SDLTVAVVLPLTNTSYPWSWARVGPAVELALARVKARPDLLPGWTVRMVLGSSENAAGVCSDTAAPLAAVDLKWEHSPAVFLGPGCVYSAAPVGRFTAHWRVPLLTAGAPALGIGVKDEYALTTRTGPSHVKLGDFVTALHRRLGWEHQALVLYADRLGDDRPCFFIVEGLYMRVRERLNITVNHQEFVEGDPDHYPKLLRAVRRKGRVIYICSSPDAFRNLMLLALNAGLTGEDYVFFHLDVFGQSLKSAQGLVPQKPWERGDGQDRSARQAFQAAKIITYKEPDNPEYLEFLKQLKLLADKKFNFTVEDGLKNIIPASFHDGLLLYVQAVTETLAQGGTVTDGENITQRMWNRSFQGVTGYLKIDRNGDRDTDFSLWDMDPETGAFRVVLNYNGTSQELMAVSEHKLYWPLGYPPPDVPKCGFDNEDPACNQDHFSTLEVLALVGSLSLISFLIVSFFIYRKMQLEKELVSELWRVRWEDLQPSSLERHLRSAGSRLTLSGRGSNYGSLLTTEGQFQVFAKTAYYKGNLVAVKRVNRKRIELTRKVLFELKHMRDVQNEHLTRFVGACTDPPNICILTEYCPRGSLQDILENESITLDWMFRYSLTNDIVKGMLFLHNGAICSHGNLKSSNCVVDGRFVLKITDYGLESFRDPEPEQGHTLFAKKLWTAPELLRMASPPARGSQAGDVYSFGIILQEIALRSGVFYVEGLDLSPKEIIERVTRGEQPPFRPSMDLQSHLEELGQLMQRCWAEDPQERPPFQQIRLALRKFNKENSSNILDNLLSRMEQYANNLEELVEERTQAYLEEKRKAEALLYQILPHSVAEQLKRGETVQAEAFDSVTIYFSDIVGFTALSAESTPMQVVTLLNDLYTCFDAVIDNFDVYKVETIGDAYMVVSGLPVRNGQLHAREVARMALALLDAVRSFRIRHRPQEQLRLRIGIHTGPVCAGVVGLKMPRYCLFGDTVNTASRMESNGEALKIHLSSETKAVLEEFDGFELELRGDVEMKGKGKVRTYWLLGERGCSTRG

Row | Substance | EC50, fluorescence of cGMP reporter cells [1] | EC50, luminescence of cGMP reporter cells [2]
1 | ANP (Bachem, H-2100) (peptide) | 220 pM | –
2 | BNP (Bachem, H-5968) (peptide) | 2900 pM | –
3 | CNP (Bachem, H-1296) (peptide) | – | 24 pM
